Laboratory results as given in publication doi:10.1101/2022.07.02.498517.

Target: human ATP synthase complex (human (endogenous in HEK293T))
Test: native gel or EMSA

human ATP synthase complex showed a stoichiometry N of 2.
